# According to patent US20180148497A1 (DUKE UNIVERSITY, published 2018):
# B1: HIV-1 × CD3 Bi-Specific Diabody (A32 × CD3) (bispecific antibody)
# chain 1: QSALTQPPSASGSPGQSVTISCTGTSSDVGGYNYVSWYQHHPGKAPKLIISEVNNRPSGVPDRFSGSKSGNTASLTVSGLQAEDEAEYYCSSYTDIHNFVFGGGTKLTVLGGGSGGGGEVQLVESGGGLVQPGGSLRLSCAASGFTFSTYAMNWVRQAPGKGLEWVGRIRSKYNNYATYYADSVKGRFTISRDDSKNSLYLQMNSLKTEDTAVYYCVRHGNFGNSYVSWFAYWGQGTLVTVSSGGCGGGEVAALEKEVAALEKEVAALEKEVAALEK
# chain 2: QAVVTQEPSLTVSPGGTVTLTCRSSTGAVTTSNYANWVQQKPGQAPRGLIGGTNKRAPWTPARFSGSLLGGKAALTITGAQAEDEADYYCALWYSNLWVFGGGTKLTVLGGGGSGGGGQVQLQESGPGLVKPSQTLSLSCTVSGGSSSSGAHYWSWIRQYPGKGLEWIGYIHYSGNTYYNPSLKSRITISQHTSENQFSLKLNSVTVADTAVYYCARGTRLRTLRNAFDIWGQGTLVTVSSGGCGGGKVAALKEKVAALKEKVAALKEKVAALKE
# notes: Two-chain DART without Fc, with an interchain disulfide and E-coil/K-coil domains; also called A32×CD3 DART
# B2: HIV-1 × CD3 Bi-Specific Diabody (7B2 × CD3) (bispecific antibody)
# chain 1: DIVMTQSPDSLAVSPGERATIHCKSSQTLLYSSNNRHSIAWYQQRPGQPPKLLLYWASMRLSGVPDRFSGSGSGTDFTLTINNLQAEDVAIYYCHQYSSHPPTFGHGTRVEIKGGGSGGGGEVQLVESGGGLVQPGGSLRLSCAASGFTFSTYAMNWVRQAPGKGLEWVGRIRSKYNNYATYYADSVKGRFTISRDDSKNSLYLQMNSLKTEDTAVYYCVRHGNFGNSYVSWFAYWGQGTLVTVSSGGCGGGEVAALEKEVAALEKEVAALEKEVAALEK
# chain 2: QAVVTQEPSLTVSPGGTVTLTCRSSTGAVTTSNYANWVQQKPGQAPRGLIGGTNKRAPWTPARFSGSLLGGKAALTITGAQAEDEADYYCALWYSNLWVFGGGTKLTVLGGGGSGGGGQVQLVQSGGGVFKPGGSLRLSCEASGFTFTEYYMTWVRQAPGKGLEWLAYISKNGEYSKYSPSSNGRFTISRDNAKNSVFLQLDRLSADDTAVYYCARADGLTYFSELLQYIFDLWGQGARVTVSSGGCGGGKVAALKEKVAALKEKVAALKEKVAALKE
# notes: Two-chain DART without Fc; also called 7B2×CD3 DART
# B3: HIV-1 × Fluorescein Bi-Specific Diabody (7B2 × 4420) (bispecific antibody)
# chain 1: DIVMTQSPDSLAVSPGERATIHCKSSQTLLYSSNNRHSIAWYQQRPGQPPKLLLYWASMRLSGVPDRFSGSGSGTDFTLTINNLQAEDVAIYYCHQYSSHPPTFGHGTRVEIKGGGSGGGGEVKLDETGGGLVQPGRPMKLSCVASGFTFSDYWMNWVRQSPEKGLEWVAQIRNKPYNYETYYSDSVKGRFTISRDDSKSSVYLQMNNLRVEDMGIYYCTGSYYGMDYWGQGTSVTVSSGGCGGGEVAALEKEVAALEKEVAALEKEVAALEK
# chain 2: DVVMTQTPFSLPVSLGDQASISCRSSQSLVHSNGNTYLRWYLQKPGQSPKVLIYKVSNRFSGVPDRFSGSGSGTDFTLKISRVEAEDLGVYFCSQSTHVPWTFGGGTKLEIKGGGSGGGGQVQLVQSGGGVFKPGGSLRLSCEASGFTFTEYYMTWVRQAPGKGLEWLAYISKNGEYSKYSPSSNGRFTISRDNAKNSVFLQLDRLSADDTAVYYCARADGLTYFSELLQYIFDLWGQGARVTVSSGGCGGGKVAALKEKVAALKEKVAALKEKVAALKE
# B4: HIV-1 × Fluorescein Bi-Specific Diabody (A32 × 4420) (bispecific antibody)
# chain 1: QSALTQPPSASGSPGQSVTISCTGTSSDVGGYNYVSWYQHHPGKAPKLIISEVNNRPSGVPDRFSGSKSGNTASLTVSGLQAEDEAEYYCSSYTDIHNFVFGGGTKLTVLGGGSGGGGEVKLDETGGGLVQPGRPMKLSCVASGFTFSDYWMNWVRQSPEKGLEWVAQIRNKPYNYETYYSDSVKGRFTISRDDSKSSVYLQMNNLRVEDMGIYYCTGSYYGMDYWGQGTSVTVSSGGCGGGEVAALEKEVAALEKEVAALEKEVAALEK
# chain 2: DVVMTQTPFSLPVSLGDQASISCRSSQSLVHSNGNTYLRWYLQKPGQSPKVLIYKVSNRFSGVPDRFSGSGSGTDFTLKISRVEAEDLGVYFCSQSTHVPWTFGGGTKLEIKGGGSGGGGQVQLQESGPGLVKPSQTLSLSCTVSGGSSSSGAHYWSWIRQYPGKGLEWIGYIHYSGNTYYNPSLKSRITISQHTSENQFSLKLNSVTVADTAVYYCARGTRLRTLRNAFDIWGQGTLVTVSSGGCGGGKVAALKEKVAALKEKVAALKEKVAALKE
# Columns and labels:
# [1] = target: T1, human CD3 on cells (primary human T cells; Jurkat 522-F/Y cells) (human, UniProt P07766 23-207); assay: flow cytometry on primary human T cells (Env- CD3+), DART at 4 µg/mL, biotinylated anti-EK antibody and streptavidin-PE [panel D. Human T Cells]
# T1 construct: whole, on cells; The other chains of the CD3 complex were also present on the cells; also called CD3ε; human CD3+ T cells
# T1 sequence (P07766 23-207): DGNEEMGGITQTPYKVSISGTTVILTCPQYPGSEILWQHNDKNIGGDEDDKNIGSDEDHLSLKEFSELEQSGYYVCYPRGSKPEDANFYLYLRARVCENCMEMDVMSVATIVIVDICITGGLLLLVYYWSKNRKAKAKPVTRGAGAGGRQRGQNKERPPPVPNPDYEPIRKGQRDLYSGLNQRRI
# [2] = target: T2, M.ConS gp140 CFI (HIV-1 group M consensus Env protein); assay: SPR (BIAcore 3000), M.ConS gp140 over DART captured on immobilized CD3ε/δ, 1:1 Langmuir global fit
# T2 construct: also called M.ConS gp140ΔCFI
# [3] = target: T2, M.ConS gp140 CFI (HIV-1 group M …); assay: SPR (BIAcore 3000), Env protein over DART captured on immobilized CD3
# [4] = target: T3, HIV-1 Env, HXBc2, subtype B, expressed on Jurkat 522-F/Y cells (HIV-1 (HXBc2, subtype B), UniProt P04578 33-856); assay: cell-based or functional assay
# [5] = target: JR-FL gp140 CF (HIV-1 Env protein) (HIV-1 (JR-FL)); assay: SPR (BIAcore 3000), Env protein over DART captured on immobilized CD3
# [6] = target: JR-FL gp140 CF (HIV-1 Env protein) (HIV-1 (JR-FL)); assay: SPR (BIAcore 3000), JR-FL gp140 over DART captured on immobilized CD3ε/δ, 1:1 Langmuir global fit
# [7] = target: T3, HIV-1 Env, HXBc2, subtype B, expressed …; assay: flow cytometry on Jurkat-522 F/Y cells (Env+ CD3+), biotinylated anti-EK antibody and streptavidin-PE [panel F. Jurkat-522 F/Y Cells]
# [8] = target: T1, human CD3 on cells (primary human T …); assay: flow cytometry on primary human T cells (Env- CD3+), biotinylated anti-EK antibody and streptavidin-PE [panel D. Human T Cells]
Binder,binding result [1],"EC50 of redirected T-cell killing of Env+ Jurkat 522-F/Y GF cells, E:T 10:1, 48 hours, LUM assay [4]","EC50 of redirected T-cell killing of Env+ Jurkat 522-F/Y cells, E:T 10:1, 48 hours, LDH release assay [4]",binding result [8],further results
B1,binds,0.172 ng/mL,0.23 ng/mL,,koff [2]: 0.00081 s⁻¹; kon [2]: 17000 M⁻¹ s⁻¹; Kd [3]: 47.7 nM
B2,binds,0.147 ng/mL,0.16 ng/mL,,Kd [5]: 15.1 nM; koff [6]: 0.00031 s⁻¹; kon [6]: 20000 M⁻¹ s⁻¹
B3,,,,no binding (tested: 4 µg/mL (single concentration)),binding result [7]: no binding (tested: 4 µg/mL (single concentration))
B4,,,,no binding (tested: 4 µg/mL (single concentration)),
